# Assay results as given in US20030175278A1 (published 2003).
# Target: T1, PS2-COOH terminus Y2H bait (PS2 COOH-terminal 39 amino acids, K410-I448) (human)
# T1 construct: also called PS2-COOH-terminal bait; not shown: the LexA fusion partner of the bait and any linker
# Assay: Y2H β-galactosidase liquid culture assay (ONPG)
# Method: The yeast two-hybrid (Y2H) procedure that utilizes the LexA/transactivation system was performed, as described previously (Stabler, et al. 1999). The PS2 COOH-terminal 39-amino acids (residues […]) (see FIG. 1a and FIG. b) were used as bait to screen a human fetal brain cDNA library. Out of 10⁷ primary yeast transformants, 50 clones were selected for further analysis based on growth in the absence of leucine and a substantial blue color change when grown on 5-bromo-4-chloro-3-indolyl-β-D-galactopyranoside (X-gal) plates. False positives were subsequently eliminated based on their interactions with negative-control baits, such as LexA alone, nuclear lamin B, and CENP-C centromere protein. Plasmid DNAs were isolated from clones that fulfilled the above requirements, and the DNA sequences of their inserts were determined and compared with the GenBank/EMBL/DDBJ databases using the BLAST search program. […] Interaction of ubiquilin proteins with various PS1 and PS2 baits were quantified in liquid culture assays by the enzymatic conversion of o-nitrophenyl-β-D-galactopyranoside (ONPG) to o-nitrophenol and D-galactose by β-galactosidase enzyme encoded by an Y2H reporter plasmid.
# Interaction between ubiquilin and the presenilins was quantified in Y2H β-galactosidase liquid culture assays. […]
# T1 sequence (chain, as listed by the source limits assumed): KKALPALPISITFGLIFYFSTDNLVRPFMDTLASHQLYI
row,Binder,fold β-galactosidase activity compared with negative-control baits
1,"near full-length ubiquilin-prey clone (FIG. 2 III, construct H without GST), M37-S595 (other, not shown: large carriers, also called near full-length clone (encoding residues 37-595); the longer ubiquilin clone) MKVTVKTPKEKEEFAVPENSSVQQFKEEISKRFKSHTDQLVLIFAGKILKDQDTLSQHGIHDGLTVHLVIKTQNRPQDHSAQQTNTAGTNVTTSSTPNSNSTSGSATSNPFGLGGLGGLAGLSSLGLNTTNFSELQSQMQRQLLSNPEMMVQIMENPFVQSMLSNPDLMRQLIMANPQMQQLIQRNPEISHMLNNPDIMRQTLELARNPAMMQEMMRNQDRALSNLESIPGGYNALRRMYTDIQEPMLSAAQEQFGGNPFASLVSNTSSGEGSQPSRTENRDPLPNPWAPQTSQSSSASSGTASTVGGTTGSTASGTSGQSTTAPNLVPGVGASMFNTPGMQSLLQQITENPQLMQNMLSAPYMRSMMQSLSQNPDLAAQMMLNNPLFAGNPQLQEQMRQQLPTFLQQMQNPDTLSAMSNPRAMQALLQIQQGLQTLATEAPGLIPGFTPGLGALGSTGGSSGTNGSNATPSENTSPTAGTTEPGHQQFIQQMLQALAGVNPQLQNPEVRFQQQLEQLSAMGFLNREANLQALIATGGDINAAIERLLGSQHHSSISVS",> 55 fold
2,"ubiquilin-prey clone (FIG. 2 III, construct B without GST), Q378-S595 (other, not shown: large carriers, also called partial ubiquilin clone (encoding the COOH-terminal 218 residues)) QSLLQQITENPQLMQNMLSAPYMRSMMQSLSQNPDLAAQMMLNNPLFAGNPQLQEQMRQQLPTFLQQMQNPDTLSAMSNPRAMQALLQIQQGLQTLATEAPGLIPGFTPGLGALGSTGGSSGTNGSNATPSENTSPTAGTTEPGHQQFIQQMLQALAGVNPQLQNPEVRFQQQLEQLSAMGFLNREANLQALIATGGDINAAIERLLGSQHHSSISVS",> 55 fold
